Reference: US20260274985A1 (MYTHIC THERAPEUTICS, published 2026)
Changes are numbered by the printed parent chain.

T1: Human TROP2 Protein, His Tag (Acro Biosystems) (human, UniProt P09758 27-274)
T1 construct: not shown: His tag
T1 sequence (looked up): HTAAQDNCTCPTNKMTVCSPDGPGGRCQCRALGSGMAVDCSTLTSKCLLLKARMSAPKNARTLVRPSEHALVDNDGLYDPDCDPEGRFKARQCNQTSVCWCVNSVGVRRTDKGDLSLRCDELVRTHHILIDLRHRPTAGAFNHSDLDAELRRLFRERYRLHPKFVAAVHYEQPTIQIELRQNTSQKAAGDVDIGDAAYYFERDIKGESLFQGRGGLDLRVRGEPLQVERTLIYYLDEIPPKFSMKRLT

T2: TROP2 on TROP2-positive NCI-H1975 cells (human, UniProt P09758 27-323)
T2 construct: whole, on cells
T2 sequence (looked up): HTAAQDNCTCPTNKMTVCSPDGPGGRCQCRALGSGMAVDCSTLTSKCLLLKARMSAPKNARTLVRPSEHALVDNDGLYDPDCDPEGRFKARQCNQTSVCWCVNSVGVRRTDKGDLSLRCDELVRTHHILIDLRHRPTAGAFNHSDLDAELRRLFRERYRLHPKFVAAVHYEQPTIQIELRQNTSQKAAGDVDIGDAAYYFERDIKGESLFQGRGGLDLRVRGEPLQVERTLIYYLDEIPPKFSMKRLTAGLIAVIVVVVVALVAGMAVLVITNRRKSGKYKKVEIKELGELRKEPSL

T3: Human TROP2 Protein, His Tag (Acro Biosystems) (human, UniProt P09758 27-274)
T3 construct: Bought protein; also called TACSTD2; not shown: His tag
T3 sequence: T1 sequence (looked up)

T4: Human TROP2 Protein, His Tag (Acro Biosystems) (human, UniProt P09758 27-274)
T4 construct: not shown: His tag
T4 sequence (looked up): T1 sequence (looked up)

T5: Human TROP2 Protein, His Tag (Acro Biosystems) (human, UniProt P09758 27-274)
T5 construct: also called TACSTD2; not shown: His tag
T5 sequence (looked up): T1 sequence (looked up)

B1: MYT12390 (antibody, V domains shown)
VH: QVQLVQSGAEVKKPGASVKVSCKASGYTFTTAGMQWVRQAPGQGLEWMGWINTHSGVPKYAEDFKGRVTISADTSTSTAYLQLSSLKSEDTAVYYCARSGFGSSYWYFDVWGQGTLVTVSS
VL: DIQMTQSPSSLSASVGDRVTITCKASQHVSTAVAWYQQKPGKAPKLLIYSASYRYTGVPSRFSGSGSGTDFTLTISSLQPEDFAVYYCHQHYITPLTFGQGTKLEIK
notes: datopotamab VL 28, 89 substituted
B2: MYT12401 (antibody, V domains shown)
VH: B1 VH
VL: B1 VL with S52H
notes: datopotamab VL 28, 52, 89 substituted
B3: MYT12402 (antibody, V domains shown)
VH: B1 VH
VL: B1 VL with S52H, H89Q, Y92H
notes: datopotamab VL 28, 52, 92 substituted
B4: MYT12396 (antibody, V domains shown)
VH: B1 VH
VL: B1 VL with H28D, S52H, H89Q, Y92H
notes: datopotamab VL 52, 92 substituted
B5: MYT12400 (antibody, V domains shown)
VH: B1 VH
VL: B1 VL with A51H, H89Q, Y92H
notes: datopotamab VL 28, 51, 92 substituted
B6: MYT12394 (antibody, V domains shown)
VH: B1 VH
VL: B1 VL with H28D, A51H, H89Q, Y92H
notes: datopotamab VL 51, 92 substituted
B7: MYT12397 (antibody, V domains shown)
VH: B1 VH
VL: B1 VL with H28D, Y92H
notes: datopotamab VL 89, 92 substituted
B8: MYT12403 (antibody, V domains shown)
VH: B1 VH
VL: B1 VL with Y92H
notes: datopotamab VL 28, 89, 92 substituted
B9: MYT12391 (antibody, V domains shown)
VH: B1 VH
VL: B1 VL with H89Q, Y92H
notes: datopotamab VL 28, 92 substituted
B10: MYT11566 (antibody, human IgG1, V domains shown)
VH: QVQLQQSGSELKKPGASVKVSCKASGYTFTNYGMNWVKQAPGQGLKWMGWINTYTGEPTYTDDFKGRFAFSLDTSVSTAYLQISSLKADDTAVYFCARGGFGSSYWYFDVWGQGSLVTVSS
VL: B1 VL with M4L, T20S, H28D, T31I, S60D, H89Q, Q100A, L104V
notes: IgG; also called Sacituzumab WT; Sacituzumab
B11: MYT11635 (antibody, human IgG1, V domains shown)
VH: B1 VH
VL: B1 VL with H28D, H89Q
notes: IgG; also called Datopotamab WT; Datopotamab
B12: MYT11699 (antibody, V domains shown)
VH: B1 VH
VL: B1 VL with H28D, H89Q, I93H
notes: IgG; also called Datopotamab LC variant
B13: MYT11614 (antibody, human IgG1, V domains shown)
VH: B10 VH
VL: B1 VL with M4L, T20S, H28D, S30H, T31I, S60D, H89Q, Q100A, L104V
notes: IgG; also called Sacituzumab LC variant
B14: MYT11670 (antibody, human IgG1, V domains shown)
VH: B1 VH with S104H
VL: B1 VL with H28D, H89Q
notes: IgG
B15: MYT13370 (antibody, human IgG1, V domains shown)
VH: B10 VH with D63H
VL: B1 VL with M4L, T20S, H28D, S30H, T31I, V33H, S60D, H89Q, Q100A, L104V
notes: IgG; also called Sacituzumab HC-LC pairing variant
B16: MYT13369 (antibody, human IgG1, V domains shown)
VH: B10 VH with D62H
VL: B1 VL with M4L, T20S, H28D, S30H, T31I, V33H, S60D, H89Q, Q100A, L104V
notes: as for B15
B17: MYT11704 (antibody, human IgG1, V domains shown)
VH: QVQLQESGPGLVKPSETLSLTCTVSGGSISSYGVHWIRQPPGKGLEWIGVIWTSGVTDYNSALMGRVTISVDTSKNQFSLKLSSVTAADTAVYYCARDGDYDRYTMDYWGQGTLVTVSS
VL: DIVMTQSPDSLAVSLGERATINCRASKSVSTSGYSYMHWYQQKPGQPPKLLIYLASNLESGVPDRFSGSGSGTDFTLTISSLQAEDVAVYYCQHSRELPYTFGQGTKLEIK
notes: IgG; also called hu7E6SVG WT; hu7E6SVG
B18: MYT12459 (antibody, human IgG1, V domains shown)
VH: B17 VH
VL: B17 VL with E59H, Q93H, E97H
notes: IgG; also called hu7E6SVG LCC his scan variant
B19: MYT12413 (hu7E6SVG variant, HCV substitutions at 33, 106) (antibody, V domains shown)
VH: B17 VH with G33H, M106H
VL: B17 VL
B20: MYT13436 (antibody, V domains shown)
VH: B10 VH with K65H
VL: DIQLTQSPSSLSASVGDRVSITCKASQDVSIAVAWYQQKPGKAPKLLIYSHSHRYTGVPDRFSGSGSGTDFTLTISSLQPEDFAVYYCQQHYHTPLTFGAGTKVEIK
notes: Sacituzumab HC-LC pairing variant
B21: MYT13409 (antibody, V domains shown)
VH: B10 VH with D62H
VL: B20 VL with S52H, H53Y, H93I
notes: as for B20
B22: MYT13411 (antibody, V domains shown)
VH: B10 VH with F64H
VL: B20 VL with S52H, H53Y, H93I
notes: as for B20
B23: MYT13423 (antibody, V domains shown)
VH: B10 VH with G33H
VL: B20 VL with S30H, H53Y
notes: as for B20
B24: MYT13408 (antibody, V domains shown)
VH: B10 VH with Y60H
VL: B20 VL with S52H, H53Y, H93I
notes: as for B20
B25: MYT13430 (antibody, V domains shown)
VH: B10 VH with Y32H
VL: B20 VL
notes: as for B20
B26: MYT13414 (antibody, V domains shown)
VH: B10 VH with Y32H
VL: B20 VL with S30H, H53Y, Q89H, H93I
notes: as for B20
B27: MYT13412 (antibody, V domains shown)
VH: B10 VH with K65H
VL: B20 VL with S52H, H53Y, H93I
notes: as for B20
B28: MYT13410 (antibody, V domains shown)
VH: B10 VH with D63H
VL: B20 VL with S52H, H53Y, H93I
notes: as for B20

Target: T1, Human TROP2 Protein, His Tag (Acro …)
Assay: BLI (Octet)

| Binder | binding result |
| --- | --- |
| B1 | no binding (tested: 50 nM) |
| B2 | no binding (tested: 50 nM) |
| B3 | no binding (tested: 50 nM) |
| B4 | no binding (tested: 50 nM) |
| B5 | no binding (tested: 50 nM) |
| B6 | no binding (tested: 50 nM) |
| B7 | no binding (tested: 50 nM) |
| B8 | no binding (tested: 50 nM) |
| B9 | no binding (tested: 50 nM) |

Target: T2, TROP2 on TROP2-positive NCI-H1975 cells
Assay: binding to TROP2-positive NCI-H1975 cells at pH 7.4

| Binder | IC50 |
| --- | --- |
| B10 | 1.05 nM |
| B11 | 0.51 nM |
| B12 | 0.73 nM |
| B13 | 0.82 nM |
| B14 | 1.61 nM |
| B15 | 0.84 nM |
| B16 | 0.63 nM |
| B17 | 0.98 nM |
| B18 | 1.42 nM |

Target: T3, Human TROP2 Protein, His Tag (Acro …)
Assay: BLI (Octet), antibody on anti-human Fc sensor, human TROP2-His in solution; legend: 3=No binding

| Binder | binding result |
| --- | --- |
| B19 | no binding (tested: 50 nM) |

Target: T2, TROP2 on TROP2-positive NCI-H1975 cells
Assay: binding to TROP2-positive NCI-H1975 cells at pH 5.4

| Binder | IC50 |
| --- | --- |
| B10 | 1.15 nM |
| B11 | 0.48 nM |
| B12 | 4.58 nM |
| B13 | ~5 nM |
| B14 | 1.83 nM |
| B15 | ~45 nM |
| B16 | ~25 nM |
| B17 | 1.29 nM |
| B18 | ~30 nM |

Target: T4, Human TROP2 Protein, His Tag (Acro …)
Assay: Octet (BLI); antigen and pH not given

| Binder | Kd | Octet response at 33.33 nM (Y-Axis) nm |
| --- | --- | --- |
| B10 | 0.6 nM | 0.157 nm |
| B11 | 1.25 nM | 0.13 nm |
| B12 | 3.52 nM | 0.0968 nm |
| B13 | 0.75 nM | 0.149 nm |
| B14 | 10.9 nM | 0.0891 nm |
| B15 | 1.36 nM | 0.155 nm |
| B16 | 0.14 nM | 0.167 nm |
| B17 | 4.4 nM | 0.118 nm |
| B18 | 6.02 nM | 0.0906 nm |

Target: T2, TROP2 on TROP2-positive NCI-H1975 cells
Assay: binding to TROP2-positive NCI-H1975 cells at pH 6.7

| Binder | IC50 |
| --- | --- |
| B10 | 0.94 nM |
| B11 | 0.54 nM |
| B12 | 1.16 nM |
| B13 | 1.06 nM |
| B14 | 1.42 nM |
| B15 | 1.86 nM |
| B16 | 1.02 nM |
| B17 | 0.97 nM |
| B18 | 1.67 nM |

Target: T5, Human TROP2 Protein, His Tag (Acro …)
Assay: BLI (Octet) [2/2]

| Binder | binding result |
| --- | --- |
| B20 | binds |
| B21 | binds |
| B22 | binds |
| B23 | binds |
| B24 | binds |
| B25 | binds |
| B26 | binds |
| B27 | binds |
| B28 | binds |
